These results are taken from patent publication US12098186.

The Kd is the free concentration of one partner at which half of the binding sites on the other are occupied at equilibrium, for simple one-to-one binding.

In this assay the target is SARS-CoV-2 receptor-binding domain (RBD) of the spike protein (SARS-CoV-2) (UniProt P0DTC2).

Substance Bamlanivimab/ LY-CoV555 (antibody) returned a Kd of 3.5 nM.
